For eleven substances, response results are on record in PMC5333794.

One assay deals with gp120 (bead-conjugated). The assay can be described thus: Fc Array (multiplexed bead assay, anti-huIgG-PE detection). As to conditions: variants incubated with gp120-coated microspheres at equal concentrations; read off a plot.
The target of assay [1] is tetrameric FcγRIII detection reagent (UniProt P08637). The assay can be described thus: Fc Array (multiplexed bead assay, tetrameric FcγRIII detection). As to conditions: variants incubated with gp120-coated microspheres at equal concentrations; read off a plot.
Chain of UniProt P08637 (P08637 17-254): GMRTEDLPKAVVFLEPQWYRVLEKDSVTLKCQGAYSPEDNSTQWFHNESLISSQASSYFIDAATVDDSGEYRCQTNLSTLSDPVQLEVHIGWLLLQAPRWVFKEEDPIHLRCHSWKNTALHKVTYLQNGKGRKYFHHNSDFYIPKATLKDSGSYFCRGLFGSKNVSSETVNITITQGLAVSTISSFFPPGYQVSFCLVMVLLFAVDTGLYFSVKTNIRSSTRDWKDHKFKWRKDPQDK

Consider b12 D270E, for which the response in the assay with gp120 (bead-conjugated) was 14000 MFI; in assay [1], 110 MFI.

Regarding b12 G236A, the response with gp120 (bead-conjugated) worked out at 14000 MFI; in assay [1] it was 59 MFI.

b12 I332E: the results for the response (with gp120 (bead-conjugated); in assay [1]) were 13000 MFI and 320 MFI, respectively.

On to b12 IE/SD, for which the figures for the response (with gp120 (bead-conjugated); in assay [1]) were 14000 MFI and 2000 MFI, respectively.

With b12 IE/SD/GA, the results for the response (in the assay with gp120 (bead-conjugated); in assay [1]) were 13000 MFI and 1100 MFI, respectively.

Take b12 K338A: the figures for the response (in the assay with gp120 (bead-conjugated); in assay [1]) were 13000 MFI and 110 MFI, respectively.

On to b12 R292A, for which the values for the response (in the assay with gp120 (bead-conjugated); in assay [1]) were 13000 MFI and 140 MFI, respectively.

In the case of b12 S239A, the values for the response (in the assay with gp120 (bead-conjugated); in assay [1]) were 13000 MFI and 110 MFI, respectively.

b12 S267G: the response with gp120 (bead-conjugated) stood at 14000 MFI; in assay [1] it was 80 MFI.

Turning to b12 S298A, the response came to 14000 MFI in the assay with gp120 (bead-conjugated) and 96 MFI in assay [1].

As to b12 SD/IE/AL, the response is 13000 MFI in the assay with gp120 (bead-conjugated) and 2800 MFI in assay [1].
